The target in one assay is CD3ε. Nature of the assay: SPR.
Assay [1] concerns the target T1, recombinant PD-L1 protein (#10084-HNAH, Sino Biological) (UniProt Q9NZQ7 19-290). Nature of the assay: SPR; heterogeneous ligand fit, KD1. (In general: Surface plasmon resonance follows binding to a sensor surface in real time, without labels.)
Assay [2] deals with T1, recombinant PD-L1 protein (#10084-HNAH, …). Nature of the assay: SPR; heterogeneous ligand fit, KD2 (second site).

T1 sequence (Q9NZQ7 19-290): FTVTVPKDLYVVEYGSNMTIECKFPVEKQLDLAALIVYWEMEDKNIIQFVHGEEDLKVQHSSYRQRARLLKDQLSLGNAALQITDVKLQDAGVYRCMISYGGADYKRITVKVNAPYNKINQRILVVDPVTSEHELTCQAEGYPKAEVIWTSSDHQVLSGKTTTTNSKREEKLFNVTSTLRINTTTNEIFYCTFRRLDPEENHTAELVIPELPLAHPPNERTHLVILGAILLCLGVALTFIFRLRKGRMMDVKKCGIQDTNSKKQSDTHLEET

B1: recombinant Nb-BiTE (PD-L1/CD3ε Nb-BiTE) (bispecific antibody)
chain: HVQLVESGGGLVQPGGSLRLSCAASGFTFSSKAMSWVRQAPGKGLDWVSTINSGGGNTYYSDSVKGRFTISRDNAKNTLYLQLNSLKTEDTAMYYCSRCSDIYCGGQYTYRGQGTLVTVSSGGGGSGGGGSGGGGSEVQLVESGGGLVQPGGSLRLSCVASGFTFSSIGMSWVRQAPGKGLEWVSGLNPVGSHTGYADSVKGRFTISRDNAKNTLHLQLNSLKTEDTAMYYCQRGYTCSGDLCERGQGTQVTVSSGGGGSGGGGSGGGGSHVQLVESGGGSVQAGGSLRLSCTVSGVIFKNEYMGWFRQAPGKEREGVAAASPGGTITYYGDSVKGRFTISRDNAKNTVYLQMNRLKPEDTAMYYCALDPSTTSWSIIRHGPSLWRYSGRGTQVTVSS
Regarding B1, the Kd – broadly, the equilibrium constant for the complex coming apart – with CD3ε was 2.48 nM; in assay [1], 9.86 nM; in assay [2], 0.00205 nM.

Values taken from article PMC10265101 (2023).
